The nature of the series: protein stability index of a GFP-peptide fusion (GPS, HEK-293T) (PSI 1-6); higher = more stable.
The mark [1] stands for this setting: treatment: DMSO, c terminus: a fixed tail appended.
The mark [2] stands for this setting: treatment: MLN4924 1 uM, 8 h, c terminus: a fixed tail appended.

± gives the standard deviation.
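Also: 24-mer peptide tiles fused after GFP, lentivirally expressed, FACS-sorted into six equal bins by GFP/DsRed ratio, decoded by Illumina sequencing, PSI is the read-weighted mean bin number.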

GGLLSYDEGGITKQPPVTQSKTAS [FBF1]: the protein stability index was found to be 4.96 ± 0.18 under setting [1] and 4.89 ± 0.33 under setting [2].

For GGTVKLADFGLARIYSYQMALTPV [CDK4], the protein stability index reads like this: under setting [1], 2.36 ± 0.27; under setting [2], 2.17 ± 0.11.

With GGYGGGVSCGFGGGAGSGFGGGYG [KRT13], the protein stability index reads like this: under setting [1], 2.23 ± 0.19; under setting [2], 2.38 ± 0.28.

Turning to GHRPPPARSGHRCVADNTNLYVFG [KLHDC10], the protein stability index was 2.3 ± 0.33 under setting [1] and 2.44 ± 0.24 under setting [2].

As to GILRRILRTLRDFPAEERARVLDR [ANKRD9], the protein stability index under setting [1] was 2.39 ± 0.28 and the protein stability index under setting [2] was determined as 2.47 ± 0.65.

Take GIVESIQIMKEGKATASEAVDCKW [NETO1]: the protein stability index runs as follows: under setting [1], 3.71 ± 1.3; under setting [2], 3.99 ± 0.2.

Turning to GIVLQGPALCFAAAIFSLFFVPLS [TMEM175], the protein stability index is, setting by setting: under setting [1], 2.89 ± 0.34; under setting [2], 2.83 ± 0.17.

As to GKAYGWCSELIRHRRVHARKEPSH [ZNF232], the protein stability index reads like this: under setting [1], 3.23 ± 0.17; under setting [2], 3.26 ± 0.38.

As to GKKKISKADIGAPSGFKHVSHVGW [WAS], the protein stability index reads like this: under setting [1], 3.06 ± 0.24; under setting [2], 3.1 ± 0.15.

For the sequence GKKQEYLENRIQREIALAKKHGTQ [CHMP4C], the protein stability index stood at 3.92 ± 0.35 under setting [1] and 4.13 ± 0.14 under setting [2].

On to GKTFKQSSNLGQHQRIHTGEKPFE [ZNF232], for which the protein stability index was 4.46 ± 0.41 under setting [1] and 4.48 ± 0.17 under setting [2].

As for GLRAATMSAVEAATCRAKELSRK [PYCR3], the protein stability index worked out at 5.1 ± 0.95 (treatment: DMSO, c terminus: native) and 4.97 ± 0.18 (treatment: MLN4924 1 uM, 8 h, c terminus: native).

Take GLSQAPQPLADEGPPGRSIGGAAP [SERTAD1]: the protein stability index is, setting by setting: under setting [1], 5.05 ± 0.31; under setting [2], 5.29 ± 0.21.

Regarding GMAFFKMREMFFEDHIDDAKYCGH [CNOT7], the protein stability index is 2.35 ± 0.2 under setting [1] and 2.36 ± 0.16 under setting [2].

On to GMVTRCIIEVLSNALSKSSAPPIT [CHGB], for which the protein stability index by setting is: under setting [1], 3.07 ± 0.29; under setting [2], 3.08 ± 0.23.

GNATLLRIIYQNKCMRNGPNALIA [EDNRA]: the protein stability index runs as follows: under setting [1], 2.66 ± 0.79; under setting [2], 2.51 ± 0.32.

Turning to GNDFTQNAGTGLVINQADVRNNRS [PLD5], the protein stability index under setting [1] came to 4.58 ± 0.35 and the protein stability index under setting [2] turned out to be 4.55 ± 0.35.

GNFPTMEVKPKDIIHVVKDQLIGQ [TENT5D]: the protein stability index runs as follows: under setting [1], 4.08 ± 0.33; under setting [2], 3.98 ± 0.35.

In the case of GNLQLDCLAQGWKQYQQRAFGWFR [RTP4], the protein stability index runs as follows: under setting [1], 2.3 ± 0.5; under setting [2], 2.24 ± 0.23.

Take GPGPQLRRGWRPSSREDSLEAGLP [CHGA]: the protein stability index is 3.86 ± 0.14 under setting [1] and 4.24 ± 0.31 under setting [2].

As for GPHEAFNKLWELCCQWLKPKMRSK [ZNF449], the protein stability index worked out at 2.67 ± 0.88 under setting [1] and 2.99 ± 0.71 under setting [2].

In the case of GPVGTDFKPLNSTPATTTEPPKPT [ZNF207], the protein stability index was 5.24 ± 0.21 under setting [1] and 5.19 ± 0.23 under setting [2].

For the sequence GQALLTHLYQSSARRYAGPLHHQT [ELAVL3], the protein stability index under setting [1] worked out at 2.4 ± 0.14 and the protein stability index under setting [2] was 2.71 ± 0.097.

On to GRHLELANQKLSEKLAAGALPHIN [CCDC3], for which the protein stability index is, setting by setting: under setting [1], 3.46 ± 0.42; under setting [2], 3.79 ± 0.36.

In the case of GRTHQWKPLYPDDYVHISSKPCDL [ADAMTSL2], the protein stability index runs as follows: under setting [1], 3.25 ± 0.3; under setting [2], 3.42 ± 0.093.

Take GRVLLANSTQADEGKTKKGVLEAP [FBXO34]: the protein stability index under setting [1] came to 5.01 ± 0.17 and the protein stability index under setting [2] is 4.9 ± 0.13.

For GSNEYTEGPSVVKRPAPRTAPRQE [SPRY1], the protein stability index runs as follows: under setting [1], 4.9 ± 0.28; under setting [2], 5.3 ± 0.17.

With GSNLDDAKGLAESLELPKAIQDQL [FANCE], the protein stability index runs as follows: under setting [1], 5.08 ± 0.53; under setting [2], 5.3 ± 0.33.

With GSSRSPGSKARAEGRGPVTPLHLD [PLEKHN1], the protein stability index runs as follows: under setting [1], 4.91 ± 0.16; under setting [2], 4.74 ± 0.21.

Source of the values: the supplement of paper PMC10567573.
